From article PMC1181240

Molecular target: MMLV RT N-terminal fragment (fingers/palm catalytic fragment) (Moloney murine leukemia virus, UniProt P03355 683-937)
Assay: X-ray crystallography

MMLV RT N-terminal fragment (fingers/palm catalytic fragment), sequence (P03355 683-937): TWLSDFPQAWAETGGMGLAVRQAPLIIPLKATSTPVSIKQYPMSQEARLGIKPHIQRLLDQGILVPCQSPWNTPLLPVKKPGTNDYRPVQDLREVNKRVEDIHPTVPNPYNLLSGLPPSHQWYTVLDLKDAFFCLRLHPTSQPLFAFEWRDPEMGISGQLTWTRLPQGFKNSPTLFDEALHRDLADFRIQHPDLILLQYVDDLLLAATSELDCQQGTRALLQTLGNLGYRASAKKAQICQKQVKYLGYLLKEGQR

B1: 16mer d(CTTAATTCGAATTAAG)2 (dsDNA)
DNA 1: CTTAATTCGAATTAAG
DNA 2: CTTAATTCGAATTAAG
  binding result: binds
